Laboratory results reported in the RNAGym collection of RNA variant scans (doi:10.7554/elife.80360).

B1: HDV Ribozyme (parent)
chain: GGCCGGCAUGGUCCCAGCCUCCUCGCUGGCGCCGGCUGGGCAACAUUCCGAGGGGACCGUCCCCUCGGUAAUGGCGAAUGGGACCCA

Variants of: B1
Assay: self-cleavage, relative activity (ratio to wild type); higher = more cleavage; co-transcriptional

First: GGCCGGCAUGGUCCCAGCCUCCUCGCUGGCGCCCGCUGGGCAACAUUCCGAGGGGACCGUCCCCUCGGUAAUGGCGACUGGGACCCA
Second: GGCCGGCAUGGUCCCAGCCUCCUCGCUGGCGCCCGCUGGGCAACAUUCCGAGGGGACCGUCCCCUCGGUAAUGGCGAGUGGGACCCA
The self-cleavage of the first is higher: 0.0898 for the first, 0.0755 for the second.

Going from GGCCGGCAUGGUCCCAGCCUCCUCGCUGGCGCCAGCUGGGCAACAUUCCGAGGGGACGGUCCCCUCGGUAAUGGCGAAUGGGACCCA to GGCCGGCAUGGUCCCAGCCUCCUCGCUGGCGCCAGCUGGGCAACAUUCCGAGGGGACUGUCCCCUCGGUAAUGGCGAAUGGGACCCA, the self-cleavage falls from 0.177 to 0.122.

First: GGCCGGCAUGGUCCCAGCCUCCUCGCUGGCGCCCGCUGGGCAACAUUCCGAGGGGACCGUCCCCUCGGUUAUGGCGAAUGGGACCCA
Second: GGCCGGCAUGGUCCCAGCCUCCUCGCUGGCGCCAGCUGGGCAACAUUCCGAGGGGACCGUCCCCUCGGUAAUGGCGAAUGGGAACCA
The self-cleavage of the first is lower: 0.0378 for the first, 0.126 for the second.

First: GGCCGGCAUGGUCCCAGCCUCCUCGCUGGCGCCCGCUGGGCAACAUUCCGAGGGGACCGUACCCUCGGUAAUGGCGAAUGGGACCCA
Second: GGCCGGCAUGGUCCCAGCCUCCUCGCUGGCGCCCGCUGGGCAAUAUUCCGAGGGGACCGUCCCCUCGGUAAUGGCGAAUGGGACCCA
The self-cleavage of the first is higher: 0.208 for the first, 0.0739 for the second.

Compared with GGCCGGCAUGGUCCCAGCCUCCUCGCUGGCGCCAGCUGGGCAACAUUCCGAGGAGACCGUCCCCUCGGUAAUGGCGAAUGGGACCCA, GGCCGGCAUGGUCCCAGCCUCCUCGCUGGCGCCAGCUGGGCAACAUUCCGAGGGUACCGUCCCCUCGGUAAUGGCGAAUGGGACCCA is higher in self-cleavage: 0.16 for the first, 0.192 for the second.

GGCCGGCAUGGUCCCAGCCUCCUCGCUGGCGCCAGCUGGGCAACAUUCCGAGGGAACCGUCCCCUCGGUAAUGGCGAAUGGGACCCA and GGCCGGCAUGGUCCCAGCCUCCUCGCUGGCGCCAGCUGGGCAACAUUCCGAGGGGACCGUCCCCUCGGUAAAGGCGAAUGGGACCCA are the same in self-cleavage: 0.17 for the first, 0.17 for the second.

First: GGCCGGCAUGGUCCCAGCCUCCUCGCUGGCGCCAGCUGGGCAACAUUCCGAGGGGACCGUCCACUCGGUAAUGGCGAAUGGGACCCA
Second: GGCCGGCAUGGUCCCAGCCUCCUCGCUGGCGCCAGCUGGGCAACAUUCCGAGGGGACCCUCCCCUCGGUAAUGGCGAAUGGGACCCA
The self-cleavage of the first is higher: 0.231 for the first, 0.225 for the second.

Compared with GGCCGGCAUGGUCCCAGCCUCCUCGCUGGCGCCAGCUGGGCAACAUUCCGAGGGGACCUUCCCCUCGGUAAUGGCGAAUGGGACCCA, GGCCGGCAUGGUCCCAGCCUCCUCGCUGGCGCCAGCUGGGCAACAUUCCGAGGGGACCAUCCCCUCGGUAAUGGCGAAUGGGACCCA is lower in self-cleavage: 0.266 for the first, 0.214 for the second.

Going from GGCCGGCAUGGUCCCAGCCUCCUCGCUGGCGCCAGCCGGGCAACAUUCCGAGGGGACCGUCCCCUCGGUAAUGGCGAAUGGGACCCA to GGCCGGCAUGGUCCCAGCCUCCUCGCUGGCGCCAGCAGGGCAACAUUCCGAGGGGACCGUCCCCUCGGUAAUGGCGAAUGGGACCCA, the self-cleavage falls from 0.102 to 0.0554.

Going from GGCCGGCAUGGUCCCAGCCUCCUCGCUGGCGCUGGCUGGGCAACAUUCCGAGGGGACCGUCCCCUCGGUAAUGGCGAAAGGGACCCA to GGCCGGCAUGGUCCCAGCCUCCUCGCUGGCGCCAGCUGGGGAACAUUCCGAGGGGACCGUCCCCUCGGUAAUGGCGAAUGGGACCCA, the self-cleavage falls from 0.684 to 0.141.

Going from GGCCGGCAUGGUCCCAGCCUCCUCGCUGGCGCCCGCUGGGGAACAUUCCGAGGGGACCGUCCCCUCGGUAAUGGCGAAUGGGACCCA to GGCCGGCAUGGUCCCAGCCUCCUCGCUGGCGCCAGCUGGGCAACAUUCCGAGGGGACCGUCCCCUCGGCAAUGGCGAAUGGGACCCA, the self-cleavage rises from 0.107 to 0.291.

First: GGCCGGCAUGGUCCCAGCCUCCUCGCUGGCGCCAGCUGGGCAACAUUCCGAGGGGACCGUCGCCUCGGUAAUGGCGAAUGGGACCCA
Second: GGCCGGCAUGGUCCCAGCCUCCUCGCUGGCGCCCGCUGGGCAACAUUCCGAGGGGACAGUCCCCUCGGUAAUGGCGAAUGGGACCCA
The self-cleavage of the first is lower: 0.13 for the first, 0.161 for the second.

First: GGCCGGCAUGGUCCCAGCCUCCUCGCUGGCGCCAGCUGGGCAACAUUCCGAGGGGACCGUCCCCUCGGUUAUGGCGAAUGGGACCCA
Second: GGCCGGCAUGGUCCCAGCCUCCUCGCUGGCGCCAGCUGGGCAACAUUCCGAGGGGUCCGUCCCCUCGGUAAUGGCGAAUGGGACCCA
The self-cleavage of the first is lower: 0.132 for the first, 0.256 for the second.

Going from GGCCGGCAUGGUCCCAGCCUCCUCGCUGGCGCCAGCUGGGCAACAUUCCGAGGGGGCCGUCCCCUCGGUAAUGGCGAAUGGGACCCA to GGCCGGCAUGGUCCCAGCCUCCUCGCUGGCGCCAGCUGGGCAACAUUCCGAGGGGACCGUCCCCUCGGUAAUAGCGAAUGGGACCCA, the self-cleavage rises from 0.104 to 0.128.

First: GGCCGGCAUGGUCCCAGCCUCCUCGCUGGCGCCAGCUGGGCAACAUUCCGAGGGGACCGUCCCCUAGGUAAUGGCGAAUGGGACCCA
Second: GGCCGGCAUGGUCCCAGCCUCCUCGCUGGCGCCAGCUGGGCAACAUUCCGAGGGGACCGUCCCCUUGGUAAUGGCGAAUGGGACCCA
The self-cleavage of the first is higher: 0.286 for the first, 0.0665 for the second.

Going from GGCCGGCAUGGUCCCAGCCUCCUCGCUGGCGCCAGCUGGGCAACAUUCCGCGGGGACCGUCCCCUCGGUAAUGGCGAAUGGGACCCA to GGCCGGCAUGGUCCCAGCCUCCUCGCUGGCGCCAGCUGGGCAACAUUCCGAGAGGACCGUCCCCUCGGUAAUGGCGAAUGGGACCCA, the self-cleavage falls from 0.193 to 0.174.

Going from GGCCGGCAUGGUCCCAGCCUCCUCGCUGGCGCCAGCUAGGCAACAUUCCGAGGGGACCGUCCCCUCGGUAAUGGCGAAUGGGACCCA to GGCCGGCAUGGUCCCAGCCUCCUCGCUGGCGCCAGCUGGGCAACAUUCCGAGGGGACCGUCCCCUCGGUAAUGCCGAAUGGGACCCA, the self-cleavage rises from 0.0583 to 0.102.

Compared with GGCCGGCAUGGUCCCAGCCUCCUCGCUGGCGCCAGCUGGGCAACAUUCCGAGGGGACCGUCCCCUCGGUAAUGGCGAAUGAGACCCA, GGCCGGCAUGGUCCCAGCCUCCUCGCUGGCGCCAGCUGGGCAACAUUCCGAGGGGACCGUCCCCUCGGUAAUGGAGAAUGGGACCCA is lower in self-cleavage: 0.128 for the first, 0.107 for the second.

Compared with GGCCGGCAUGGUCCCAGCCUCCUCGCUGGCGCCAGCUGGGCAACAUUCCGAGGGGACCGUCCCCCCGGUAAUGGCGAAUGGGACCCA, GGCCGGCAUGGUCCCAGCCUCCUCGCUGGCGCCAGCUGGGCAACAUUCCGAGGGGACCGUCCCCGCGGUAAUGGCGAAUGGGACCCA is higher in self-cleavage: 0.141 for the first, 0.178 for the second.

Compared with GGCCGGCAUGGUCCCAGCCUCCUCGCUGGCGCCAGCUGGGCAACAUUCCGAGGGGACCGUCCCCACGGUAAUGGCGAAUGGGACCCA, GGCCGGCAUGGUCCCAGCCUCCUCGCUGGCGCCAGCUGGGCAACAUUCCGAGGGGACCGUCCCCUCGGUAAUGGCGAUUGGGACCCA is lower in self-cleavage: 0.0692 for the first, 0.0489 for the second.

Compared with GGCCGGCAUGGUCCCAGCCUCCUCGCUGGCGCCAGCUGGGCAACAUUCCGAGGGGACCGUCCCCUCGGUAAUGGCGAAUGGUACCCA, GGCCGGCAUGGUCCCAGCCUCCUCGCUGGCGCCAGCUGGGCAACAUUCCGAGGGGACCGUCCCCUCGGUAAUGGCGAAUGGAACCCA is lower in self-cleavage: 0.129 for the first, 0.0671 for the second.

Going from GGCCGGCAUGGUCCCAGCCUCCUCGCUGGCGCUGGCUGGGCAACAUUCCGAGGGGACCGCCCCCUCGGUAAUGGCGAAUGGGACCCA to GGCCGGCAUGGUCCCAGCCUCCUCGCUGGCGCCAGCUGGGCAACAUUCCGAGGGGACCGUUCCCUCGGUAAUGGCGAAUGGGACCCA, the self-cleavage falls from 0.773 to 0.213.

Going from GGCCGGCAUGGUCCCAGCCUCCUCGCUGGCGCCCGCUGGGCAACAUUCCGAGGGGACCGUCCCCUCGGUAGUGGCGAAUGGGACCCA to GGCCGGCAUGGUCCCAGCCUCCUCGCUGGCGCCCGCUGGGCAACAUUCCGAGGGGACCGUCCCCUCGGUACUGGCGAAUGGGACCCA, the self-cleavage rises from 0 to 0.201.

First: GGCCGGCAUGGUCCCAGCCUCCUCGCUGGCGCCCGCUGGGCAACAUUCCGAGGGGAGCGUCCCCUCGGUAAUGGCGAAUGGGACCCA
Second: GGCCGGCAUGGUCCCAGCCUCCUCGCUGGCGCCAGCUGGGCAACAUUCGGAGGGGACCGUCCCCUCGGUAAUGGCGAAUGGGACCCA
The self-cleavage of the first is lower: 0.0978 for the first, 0.155 for the second.

Going from GGCCGGCAUGGUCCCAGCCUCCUCGCUGGCGCCCGAUGGGCAACAUUCCGAGGGGACCGUCCCCUCGGUAAUGGCGAAUGGGACCCA to GGCCGGCAUGGUCCCAGCCUCCUCGCUGGCGCCCGCUGGGCAACAUUUCGAGGGGACCGUCCCCUCGGUAAUGGCGAAUGGGACCCA, the self-cleavage rises from 0.0707 to 0.17.

Compared with GGCCGGCAUGGUCCCAGCCUCCUCGCUGGCGCCCGCUGGGCAACAUUCAGAGGGGACCGUCCCCUCGGUAAUGGCGAAUGGGACCCA, GGCCGGCAUGGUCCCAGCCUCCUCGCUGGCGCCCGCUGGGCAACAUUCUGAGGGGACCGUCCCCUCGGUAAUGGCGAAUGGGACCCA is lower in self-cleavage: 0.249 for the first, 0.208 for the second.

Compared with GGCCGGCAUGGUCCCAGCCUCCUCGCUGGCGCCAGCUGGGCAACAUUCCGAGGGGAUCGUCCCCUCGGUAAUGGCGAAUGGGACCCA, GGCCGGCAUGGUCCCAGCCUCCUCGCUGGCGCCAGCUGGGCAACAUUGCGAGGGGACCGUCCCCUCGGUAAUGGCGAAUGGGACCCA is lower in self-cleavage: 0.332 for the first, 0.119 for the second.

Compared with GGCCGGCAUGGUCCCAGCCUCCUCGCUGGCGCCAGCUGGGCAACAUGCCGAGGGGACCGUCCCCUCGGUAAUGGCGAAUGGGACCCA, GGCCGGCAUGGUCCCAGCCUCCUCGCUGGCGCCAGCUGGGCAACAUUCCGAGGGGACCGUCCCCUCGGUAAUGGCGAAUGGGACCAA is lower in self-cleavage: 0.0791 for the first, 0.0683 for the second.

First: GGCCGGCAUGGUCCCAGCCUCCUCGCUGGCGCCCGCUGGGCAACAUUCCGAGGGGCCCGUCCCCUCGGUAAUGGCGAAUGGGACCCA
Second: GGCCGGCAUGGUCCCAGCCUCCUCGCUGGCGCCCGCUGGGCAACAUUCCGAGGGGGCCGUCCCCUCGGUAAUGGCGAAUGGGACCCA
The self-cleavage of the first is higher: 0.237 for the first, 0.142 for the second.

Compared with GGCCGGCAUGGUCCCAGCCUCCUCGCUGGCGCCAGCUGCGCAACAUUCCGAGGGGACCGUCCCCUCGGUAAUGGCGAAUGGGACCCA, GGCCGGCAUGGUCCCAGCCUCCUCGCUGGCGCCAGCUGGGCAACAUUCCGAGGGGACCGUCCCCUCGGUAAUGGCGAAUAGGACCCA is lower in self-cleavage: 0.0707 for the first, 0.0241 for the second.

Going from GGCCGGCAUGGUCCCAGCCUCCUCGCUGGCGCCAGAUGGGCAACAUUCCGAGGGGACCGUCCCCUCGGUAAUGGCGAAUGGGACCCA to GGCCGGCAUGGUCCCAGCCUCCUCGCUGGCGCCAGCUGGGCAACAUUCCGAGGGGACCGCCCCCUCGGUAAUGGCGAAUGGGACCCA, the self-cleavage rises from 0.0978 to 0.258.

Going from GGCCGGCAUGGUCCCAGCCUCCUCGCUGGCGCCAGCUGGGCAACAUUCCGAGGGGACCGUCCCCUCGGUAAUGGCGUAUGGGACCCA to GGCCGGCAUGGUCCCAGCCUCCUCGCUGGCGCCAGCUGGGCAACAUUCCAAGGGGACCGUCCCCUCGGUAAUGGCGAAUGGGACCCA, the self-cleavage rises from 0.0339 to 0.16.
